Consider 1 substance from publication PMC9548408.

Experiment [1] addresses human lysosomal α-L-fucosidase (FucA1) (human) (UniProt P04066). Briefly: SEC-MALS; SEC-MALLS, Superdex S200 10/300, 20 mM HEPES pH 7.4, 200 mM NaCl, room temperature (20 ± 2°C), 100 μL injected at 0.8 mg/mL.
The target is the same in experiment [2]. Briefly: cryo-EM structure; single-particle cryo-EM, 200 kV Glacios, D2 symmetry imposed; unliganded FucA1 at 2 mg/mL, and FucA1 at 1.5 mg/mL with 1 mM deoxyfuconojirimycin in 60 mM phosphate citrate pH 4.5.

By stoichiometry N is commonly meant a count of units in the complex or per binding partner.

For “human lysosomal α-L-fucosidase (FucA1) (from UniProt P04066 32-466) (enzyme)”, the stoichiometry N in experiment [1] and in experiment [2] was 4 throughout.
